Laboratory results reported in patent US20250277208A1, “Method of Peptide Library Construction and Peptides Thereof” (Alcamena Stem Cell Therapeutics, LLC, priority 2024, published 2025).
Like-named read-outs stand apart in the source and are kept apart here. Blank lines part the entries; values can stand above or below the molecule they belong to. Square brackets hold non-standard residues; d marks the D form. Ends that are not written are not given here. Phe(4-F) = N[C@@H](Cc1ccc(F)cc1)C(=O)O; Gla = N[C@@H](CC(C(=O)O)C(=O)O)C(=O)O; Cha = N[C@@H](CC1CCCCC1)C(=O)O; hLeu = CC(C)CC[C@H](N)C(=O)O

Tests used:
IL-6 signaling = IL-6 signaling (Homo sapiens, UniProt P05231); test: IL-6 Bioassay (Promega), luciferase reporter cells, inhibition of IL-6-induced cell signaling; type: cell-based; conditions: peptides incubated with IL-6 for 10 min, IL-6 0.5 nM, cells 6 hours
Sequence of IL-6 signaling (P05231 30-212): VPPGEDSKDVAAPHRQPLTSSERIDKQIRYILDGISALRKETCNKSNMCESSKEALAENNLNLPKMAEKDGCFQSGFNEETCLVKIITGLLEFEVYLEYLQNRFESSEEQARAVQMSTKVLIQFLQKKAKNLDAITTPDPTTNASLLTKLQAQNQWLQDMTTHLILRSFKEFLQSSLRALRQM
Method: To verify the ability of the peptides of the invention to inhibit IL-6-signaling, they were tested with the IL-6 Bioassay Kit (Promega). This kit includes human cells engineered to express the IL-6 receptor and a luciferase reporter driven by a response element. When IL-6 binds, the IL-6R transduces intracellular signals resulting in luminescence (fluorescence). Inhibition of IL-6 interaction with the receptor leads to the decrease of the luciferase expression and lower fluorescence.
The selected peptides were incubated with IL-6 for 10 min before being added to cell culture medium. […] Peptides 27 (2), 38 (2) and 45 (2) were also tested.
The ability of peptides to inhibit IL-6 signaling pathway was tested with the IL-6 Bioassay from Promega (cat #JA2501). The bioluminescent signal is detected and quantified using Bio-Glo™ Luciferase Assay System. Different concentrations of the test peptides were mixed with IL-6 (0.5 nM) and added to the IL-6 Bioassay Cells according to the manufacturer's instructions. Cells were incubated for 6 hours in a humidified incubator at 37° C. and 5% CO2 concentration. Following incubation, 75 microliters of the Bio-Glo™ Reagent was added to the cell culture and the luminescence was measured with a Biotek Synergy HTX plate reader. Data was analyzed according to manufacturer's recommendations.

[1] = target: T1, Biotinylated recombinant human IL-6 (human, UniProt P05231 30-212, biotinylated (sites not given)); test: SPR (Biacore), IL-6 on chip
T1 construct: In the cell bioassay IL-6 (0.5 nM) was used in solution; also called Interleukin-6; IL-6-Biotin

[2] = target: T1, Biotinylated recombinant human IL-6; test: SPR (Biacore), IL-6 on chip; remark: listed apart in the source
[3] = target: T1, Biotinylated recombinant human IL-6; test: cell-based or functional assay

IC50 (IL-6 signaling): 1.2 µM
Molecule: Ac-SFRDLIRMMKVCVG-NH2 [Peptide 90, SFRDLIRMMKVCVG]

B1: Peptide 49 (peptide)
peptide: SVRDLLRRMCVFWG
notes: termini not protected
binding result [1]: no binding (tested: 20 µM highest peptide concentration)

Kd [2]: 50.8 µM
B2: Control peptide CA11 (peptide)
peptide: NQQLIEEIIQILHKIFEIL
notes: published peptide (Kobayashi et al. 2011) synthesized by the inventors; whether its termini were protected is not clear

Kd [2]: 0.436 µM
B3: Peptide 53 (peptide)
peptide: Ac-ATIRDLLRRMKVCVG-NH2

B4: Peptide 59 (peptide)
peptide: Ac-FAFRDLLSHNCHIVG-NH2
binding result [2]: no binding (tested: 20 µM highest peptide concentration)

Kd [2]: 0.061 µM
B5: Control peptide PN-1974 (peptide)
peptide: H-FD[hLeu]DIHLLFLPTEWEKDKNEE-OH
SMILES: CC[C@H](C)[C@H](NC(=O)[C@H](CC(=O)O)NC(=O)[C@H](CCC(C)C)NC(=O)[C@H](CC(=O)O)NC(=O)[C@@H](N)Cc1ccccc1)C(=O)N[C@@H](Cc1c[nH]cn1)C(=O)N[C@@H](CC(C)C)C(=O)N[C@@H](CC(C)C)C(=O)N[C@@H](Cc1ccccc1)C(=O)N[C@@H](CC(C)C)C(=O)N1CCC[C@H]1C(=O)N[C@H](C(=O)N[C@@H](CCC(=O)O)C(=O)N[C@@H](Cc1c[nH]c2ccccc12)C(=O)N[C@@H](CCC(=O)O)C(=O)N[C@@H](CCCCN)C(=O)N[C@@H](CC(=O)O)C(=O)N[C@@H](CCCCN)C(=O)N[C@@H](CC(N)=O)C(=O)N[C@@H](CCC(=O)O)C(=O)N[C@@H](CCC(=O)O)C(=O)O)[C@@H](C)O
notes: linear, termini not protected

B6: Peptide 43 (peptide)
peptide: SVRDLLSHNCHIVG
notes: termini not protected
binding result [1]: no binding (tested: 20 µM highest peptide concentration)

B7: Peptide 44 (peptide)
peptide: H-SVRDLQKQMCHIVG-OH
notes: Printed SVRDLQKOMCHIVG (the letter O is as printed, perhaps a misprint); termini not protected
binding result [1]: no binding (tested: 20 µM highest peptide concentration)

B8: Control peptide PN-2519 (peptide)
peptide: FD[Cha]DIHLL[Phe(4-F)]LPTEWEK[Gla]KNEE
notes: Printed FD(Cha)DIHLL(4F)LPTEWEK(Cla)KNEE; tested in a linear form
binding result [2]: no binding (tested: 20 µM highest peptide concentration)

B9: Control peptide RA07 (peptide)
peptide: INTLLSEINSILLDIISLL
notes: as for B2
binding result [2]: no binding (tested: 20 µM highest peptide concentration)

Kd [2]: 1.39 µM
B10: Peptide 64 (peptide)
peptide: Ac-SVRDLIRMMKVCVG-NH2

B11: Peptide 35 (peptide)
peptide: CVYRDLLRRMCHIVG
notes: termini not protected
binding result [1]: no binding (tested: 20 µM highest peptide concentration)

B12: Peptide 39 (peptide)
peptide: SVRDANYRMCHIVG
notes: termini not protected
binding result [1]: no binding (tested: 20 µM highest peptide concentration)

Kd [1]: 0.649 µM
B13: Peptide 37 (peptide)
peptide: SVRDLPTQMCHIVG
notes: termini not protected

B14: Peptide 60 (peptide)
peptide: Ac-FAFRDLLRRMKVCVG-NH2
binding result [2]: no binding (tested: 20 µM highest peptide concentration)

Kd [1]: 2.58 µM
B15: Peptide 9 (peptide)
peptide: SVRDLLRRMCHIVG
notes: linear, N and C termini not protected; also called 9 (parent); parent peptide 9

Kd [2]: 0.15 µM
B16: Peptide 65 (peptide)
peptide: Ac-SVRDLLRRMKHIVG-NH2

Kd [1]: 0.058 µM
B17: Peptide 27 (peptide)
peptide: SVRDLLRRMKVCVG
notes: termini not protected

Kd [2]: 0.565 µM
B18: Peptide 84 (peptide)
peptide: Ac-TIRDLLRMMKVIVG-NH2

Kd [1]: 0.545 µM
B19: Peptide 33 (peptide)
peptide: SVRDLIRMMCHIVG
notes: termini not protected; also called variant 33

Kd [2]: 0.283 µM
B20: Peptide 66 (peptide)
peptide: Ac-SVRDLLRRMCVIVG-NH2

B21: Peptide 67 (peptide)
peptide: Ac-SVRDLLRRMCHCVG-NH2
modifications: cysteine pairing not given here
binding result [2]: no binding (tested: 20 µM highest peptide concentration)

Kd [2]: 0.172 µM
B22: Peptide 69 (peptide)
peptide: Ac-SVRDLLRMMCHIVG-NH2

Kd [2]: 0.049 µM
IC50, inhibition of IL-6-induced cell signaling (IL-6 Bioassay, luciferase reporter cells) [3]: 3.4 µM
B23: Peptide 71 (peptide)
peptide: Ac-TIRDLLRRMCHIVG-NH2

Kd [2]: 1.13 µM
B24: Peptide 73 (peptide)
peptide: Ac-SVRDLLRRMKVIVG-NH2

Kd [2]: 0.724 µM
B25: Peptide 68 (peptide)
peptide: Ac-SVRDLIRRMCHIVG-NH2

IC50, inhibition of IL-6-induced cell signaling (IL-6 Bioassay, luciferase reporter cells) [3]: 0.58 µM
B26: Peptide 27 (2) (peptide)
peptide: Ac-SVRDLLRRMKVCVG-NH2

B27: Peptide 47 (peptide)
peptide: SVRDLQSTMCHIVG
notes: termini not protected
binding result [1]: no binding (tested: 20 µM highest peptide concentration)

Kd [1]: 2.82 µM
B28: Peptide 48 (peptide)
peptide: SVRDWTPRMCHIVG
notes: termini not protected

B29: Peptide 52 (peptide)
peptide: Ac-ATIRDLLSHNCHIVG-NH2
binding result [2]: no binding (tested: 20 µM highest peptide concentration)

Kd [1]: 2.73 µM
B30: Peptide 28 (peptide)
peptide: ACMDLLRRMCHIVG
notes: termini not protected

Kd [2]: 0.249 µM
B31: Peptide 80 (peptide)
peptide: Ac-FSFRDLLRMMCHIVG-NH2

Kd [2]: 1.27 µM
B32: Peptide 81 (peptide)
peptide: Ac-FSFRDLLRMMKVIVG-NH2

Kd [2]: 1.49 µM
B33: Peptide 78 (peptide)
peptide: Ac-FAFRDLIRMMCVIVG-NH2

Kd [2]: 0.422 µM
B34: Peptide 54 (peptide)
peptide: Ac-ASVRDLLRRMCHIVG-NH2

Kd [2]: 0.405 µM
B35: Peptide 77 (peptide)
peptide: Ac-FAFRDLIRMMKHIVG-NH2

Kd [2]: 0.047 µM
B36: Peptide 87 (peptide)
peptide: Ac-FSVRDLIRMMKVCVG-NH2

Kd [2]: 0.132 µM
B37: Peptide 75 (peptide)
peptide: Ac-FAFRDLLRMMCHIVG-NH2

Kd [2]: 0.071 µM
B38: Peptide 58 (peptide)
peptide: Ac-FAFRDLIRMMCHIVG-NH2
notes: also called variant 58

IC50, inhibition of IL-6-induced cell signaling (IL-6 Bioassay, luciferase reporter cells) [3]: 0.0235 µM
B39: Peptide 72 (peptide)
peptide: Ac-FSFRDLLRRMCHIVG-NH2

Kd [2]: 1.3 µM
B40: Peptide 76 (peptide)
peptide: Ac-FAFRDLIRMMKVIVG-NH2

Kd [2]: 0.147 µM
IC50, inhibition of IL-6-induced cell signaling (IL-6 Bioassay, luciferase reporter cells) [3]: 0.072 µM
B41: Peptide 45 (2) (peptide)
peptide: Ac-FAFRDLLRRMCHIVG-NH2

Kd [2]: 0.144 µM
B42: Peptide 61 (peptide)
peptide: Ac-FSVRDLLRRMCHIVG-NH2

Kd [2]: 0.265 µM
B43: Peptide 93 (peptide)
peptide: Ac-FSFRDLIRMMKVCVG-NH2

Kd [1]: 0.092 µM
B44: Peptide 45 (peptide)
peptide: FAFRDLLRRMCHIVG
notes: termini not protected

Kd [1]: 0.119 µM
B45: Peptide 24 (peptide)
peptide: ETIRDLLRRMCHIVG
notes: termini not protected

Kd [1]: 0.054 µM
B46: Peptide 38 (peptide)
peptide: ATIRDLLRRMCHIVG
notes: termini not protected

IC50, inhibition of IL-6-induced cell signaling (IL-6 Bioassay, luciferase reporter cells) [3]: 0.183 µM
B47: Peptide 82 (peptide)
peptide: Ac-ATIRDLIRMMKVCVG-NH2

Kd [2]: 0.128 µM
B48: Peptide 51 (peptide)
peptide: Ac-ATIRDLIRMMCHIVG-NH2
notes: also called peptide variant 51

Kd [2]: 0.115 µM
IC50, inhibition of IL-6-induced cell signaling (IL-6 Bioassay, luciferase reporter cells) [3]: 0.142 µM
B49: Peptide 38 (2) (peptide)
peptide: Ac-ATIRDLLRRMCHIVG-NH2

B50: Control peptide C1 (peptide)
peptide: SVKDLQHGLRHVVG
notes: homologous to peptide 9 without its mutations (two unmutated fragments of IL-6R); whether its termini were protected is not clear
binding result [2]: no binding (tested: 20 µM highest peptide concentration)
